Values quoted from earlier work in article PMC3957495.

Experiments:
[1] = molecular target: CRF (UniProt P06850)
[2] = molecular target: Urocortin 1 (UniProt P55089)
[3] = molecular target: CRF (UniProt P06850); remark: listed apart in the source

sCRF2a receptor, sequence (Q60748 20-411): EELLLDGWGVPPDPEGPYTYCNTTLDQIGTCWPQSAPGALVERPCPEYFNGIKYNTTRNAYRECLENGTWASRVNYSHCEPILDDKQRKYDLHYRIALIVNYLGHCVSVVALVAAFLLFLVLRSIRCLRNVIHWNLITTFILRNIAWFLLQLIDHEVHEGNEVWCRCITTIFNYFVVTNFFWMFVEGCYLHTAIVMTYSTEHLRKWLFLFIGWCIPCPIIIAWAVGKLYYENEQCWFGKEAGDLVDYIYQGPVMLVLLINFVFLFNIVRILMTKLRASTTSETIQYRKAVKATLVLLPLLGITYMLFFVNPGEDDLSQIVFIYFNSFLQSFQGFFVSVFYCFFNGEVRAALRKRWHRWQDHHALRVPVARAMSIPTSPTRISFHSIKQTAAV
CRF, sequence (P06850 154-194): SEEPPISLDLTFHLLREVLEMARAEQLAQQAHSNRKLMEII
Urocortin 1, sequence (P55089 83-122): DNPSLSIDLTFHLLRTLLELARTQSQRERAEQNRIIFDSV
CRF2a-tr, sequence (P47866 20-411): as the sequence (Q60748 20-411) above, with V10E, T19S, V100I, A146T, I168V, I221V, A241P, V253I, M254I, A349S counted along it

Substance	Kd [1]	Ki [2]	Ki [3]
CRF2a-tr (from UniProt P47866)	12.7 nM		
sCRF2a receptor (from UniProt Q60748)		6.6 nM	23 nM
